The text below walks through data of patent US12325865B2, “Methods for increasing efficiency of gene editing in cells” (President and Fellows of Harvard College, priority 2017, dated 2025).

The assay concerns PFFF3 cells. The assay is described as follows: Treatment of Cas9/gRNA-modified PFFF3 cells during multiplex PERV pol genetic modification. The format is cell-based, porcine. As to conditions: FIG. 2. The method, then:
Stable expression of Cas9 and the three sgRNAs was achieved by integrating a piggyBac transposon carrying these elements into the PFFF3 genome. The PFFF3 cell line was established expressing a Piggybac-Cas9/3gRNAs construct. Cas9 and […] were carried in the same vector. Cas9 expression was induced by addition of doxycycline.
Methods described herein where cells are treated with PFTα and/or bFGF mitigate the stress from multiplex DNA damage and support clonal expansion of 100% PERV-free cells. Such DNA damage decreases targeting efficiency of the PFFF3 population over time and results in the inability to obtain 100% PERV-free PFFF3 clonal cell lines. Methods described herein are directed to inhibiting senescence and/or apoptosis pathways with small-molecule drugs so as to increase the targeting efficiency of the PFFF3 population and enhance viability of the highly edited clones. […] (See FIG. 1). […] (See FIG. 2). […] The distribution of the targeting efficiencies of single cell clones treated with PFTα and bFGF was approximately bimodal, and 100% PERV-free PFFF3 clonal cell lines were isolated. The eradication of pol activity was validated by RNA-seq with confirmation that all pol transcripts had been mutated.

B1: SV40 large T antigen: SV40 large T antigen, treatment also increasing targeting efficiency (protein, UniProt P03070 1-708, looked up)
Large T antigen: MDKVLNREESLQLMDLLGLERSAWGNIPLMRKAYLKKCKEFHPDKGGDEEKMKKMNTLYKKMEDGVKYAHQPDFGGFWDATEIPTYGTDEWEQWWNAFNEENLFCSEEMPSSDDEATADSQHSTPPKKKRKVEDPKDFPSELLSFLSHAVFSNRTLACFAIYTTKEKAALLYKKIMEKYSVTFISRHNSYNHNILFFLTPHRHRVSAINNYAQKLCTFSFLICKGVNKEYLMYSALTRDPFSVIEESLPGGLKEHDFNPEEAEETKQVSWKLVTEYAMETKCDDVLLLLGMYLEFQYSFEMCLKCIKKEQPSHYKYHEKHYANAAIFADSKNQKTICQQAVDTVLAKKRVDSLQLTREQMLTNRFNDLLDRMDIMFGSTGSADIEEWMAGVAWLHCLLPKMDSVVYDFLKCMVYNIPKKRYWLFKGPIDSGKTTLAAALLELCGGKALNVNLPLDRLNFELGVAIDQFLVVFEDVKGTGGESRDLPSGQGINNLDNLRDYLDGSVKVNLEKKHLNKRTQIFPPGIVTMNEYSVPKTLQARFVKQIDFRPKDYLKHCLERSEFLLEKRIIQSGIALLLMLIWYRPVAEFAQSIQSRIVEWKERLDKEFSLSVYQKMKFNVAMGIGVLDWLRNSDDDDEDSQENADKNEDGGEKNMEDSGHETGIDSQSQGSFQAPQSSQSVHDHNQPYHICRGFTCFKKPPTPPPEPET
As for B1, the “average targeting efficiency of the resulting PFFF3 population” value is recorded as “increased average targeting efficiency”.
